In patent publication US7078478B2, “Inhibition of the proliferation of cells of the multiple myeloma” (GSF-Forschungszentrum für Umwelt Gesundheit, GmbH, priority 1999, dated 2006):

Legend:
[1] = target: deletion mutant Δ771-827 of Eg (mouse; human) (UniProt P14753); assay: co-immunoprecipitation with anti-Hck, anti-His blot, Cos-7 lysates (FIG. 5A)
[2] = target: deletion mutant Δ771-827 of Eg (mouse; human) (UniProt P14753); assay: co-immunoprecipitation with anti-Hck, anti-His blot, Cos-7 lysates (FIG. 5B)
[3] = target: DDM mutant (double point and deletion mutant) of Eg (mouse; human) (UniProt P14753); assay: co-immunoprecipitation with anti-Hck, anti-His blot, Cos-7 lysates (FIG. 6)
[4] = target: deletion mutant Δ771-827 of Eg (mouse; human) (UniProt P14753); assay: as above
[5] = tested on: IL-6 dependent murine cell line 7TD-1; assay: IL-6 induced cell proliferation of 7TD-1 cells incubated with peptides, microscopic cell counting; type: cell-based; settings: 7TD-1 stimulated with 40 pg IL-6, 100 μM peptide, 4 days, compared with untreated or unstimulated cells
Method: Subfragments of the previously described 41 amino acid Hck binding domain of gp130 were used to narrow down the essential parts of this domain. The subfragments, which are shown in FIG. 12, were synthesized by solid phase synthesis, N-terminally coupled to myristate in order to render them membrane soluble, and diluted in DMSO. A MM-cell line was incubated with the different peptides and cell proliferation was measured.
To determine the effects of the different peptides on IL-6 induced cell proliferation, the IL-6 dependent murine cell line 7TD-1 was stimulated with 40 pg of IL-6 and incubated with 100 μM of the different peptides. After 4 days, the cell proliferation was determined by microscopic cell counting.

decrease of Hck co-precipitation with gp130 [1] [%]	loss of gp130 co-precipitation with Hck [2] [%]	reduction of Hck binding to gp130 [3] [%]	reduction of Hck binding to gp130 [4] [%]	Substance	cell proliferation [5]
> 90	90	> 90	> 90	Hck tyrosine kinase (wild type Hck, expressed from pcDNA3-Hck or pDpuro-Hck) (from UniProt P08631 2-526) (enzyme)	
				TQPLLDSEERPEDLQLVD [compound 2]	down regulation of cell proliferation to the basal level
				LLDSEERPEDLQLVD [compound 6]	down regulation of cell proliferation to the basal level
